Reference: PMC3662962

Substrate: O=[N+]([O-])c1ccc(OP(=O)(O)O)cc1
Experiment: purified protein
Details: pH 8.0; 37.0 °C

B1: Rv1364c (Mycobacterium tuberculosis H37Rv) (protein)
chain: MAAEMDWDKTVGAAEDVRRIFEHIPAILVGLEGPDHRFVAVNAAYRGFSPLLDTVGQPAREVYPELEGQQIYEMLDRVYQTGEPQSGSEWRLQTDYDGSGVEERYFDFVVTPRRRADGSIEGVQLIVDDVTSRVRARQAAEARVEELSERYRNVRDSATVMQQALLAASVPVVPGADIAAEYLVAAEDTAAGGDWFDALALGDRLVLVVGDVVGHGVEAAAVMSQLRTALRMQISAGYTVVEALEAVDRFHKQVPGSKSATMCVGSLDFTSGEFQYCTAGHPPPLLVTADASARYVEPTGAGPLGSGTGFPVRSEVLNIGDAILFYTDGLIERPGRPLEASTAEFADLAASIASGSGGFVLDAPARPIDRLCSDTLELLLRSTGYNDDVTLLAMQRRAPTPPLHITLDATINAARTVRAQLREWLAEIGADHSDIADIVHAISEFVENAVEHGYATDVSKGIVVAAALAGDGNVRASVIDRGQWKDHRDGARGRGRGLAMAEALVSEARIMHGAGGTTATLTHRLSRPARFVTDTMVRRAAFQQTIDSEFVSLVESGRIVVRGDVDSTTAATLDRQIAVESRSGIAPVTIDLSAVTHLGSAGVGALAAACDRARKQGTECVLVAPPGSPAHHVLSLVQLPVVGADTEDIFAQE
Km: 3.61 ± 0.58 mM | Vmax: 0.09 µmol/min/mg
